Tests used:
Human serum albumin = biological target: T1, Human serum albumin (Homo sapiens, UniProt P02768); test: SPR (ProteOn XPR36) binding of SABA-neuropeptide fusions to Human Serum Albumin; details: 25° C., average of two experiments
T1 construct: purchased Novozymes Recombumin
Description: Surface Plasmon Resonance (SPR) is a direct binding technique by which molecular interactions can be observed in real time. For these experiments, SPR binding studies were performed using a ProteOn XPR36 instrument (BioRad Laboratories). The running buffer, phosphate buffered saline 0.05% Tween 20 pH 7.4, was purchased from Teknova (cat #P1192) and all experiments were run at 25° C. Human serum albumin was directly immobilized on a BioRad GLC chip via amine coupling as per manufacturer's guidelines using amine coupling reagents purchased from BioRad Laboratories. Human serum albumin was purchased from Novozymes (Recombumin™). About 5000 resonance units (RU) of human serum albumin were immobilized onto 4 separate lanes of the GLC chip surface. For each analyte, five concentrations ranging from 15.6 nM to 250 nM were injected over the surface at 30 μl/min for 240 seconds. The dissociation was monitored for 600 seconds. The surface was regenerated with 100 mM HCl. The resultant data were fitted to a Langumuir 1:1 binding model using the ProteOn Manager Software. The experiment was repeated with a different concentration range. In this second experiment, 5 concentrations ranging from 500 nM to 32 nM were injected over the surfaces, and the data analyzed as above. The KD is the disassociation constant. Smaller numbers indicate tighter binding to serum albumin. Molecules covalently attached to SABA that bind to serum albumin display longer in vivo pharmokinetic half-lives, as described earlier with respect to SABA-FGF-21 fusions.

[1] = Half-life of HSA and of SABA1-4 with or without HSA in mice (ELISA, WinNonlin); assay type: in vivo, Ncr nude female mice; details: for PK (T½) Mice: co-injected with HSA (3-4 molar excess), tail vein; for half-life in mice plasma: injected without HSA; for increase in half life when co-injected with HSA: with HSA vs without HSA, mice
Description: The pharmacokinetic parameters of each Adnectin™ were determined using non-compartmental modeling with WinNonlin software.

HSA = HSA (Homo sapiens, UniProt P02768); details: for Resistant to pH 7.4→5.5?: binding to HSA from pH 7.4 down to pH 5.5, symbols not defined
Description: (§1) In addition, binding to albumin was carried out under various pH conditions ranging from pH 5.5 to pH 7.4.

RhSA = RhSA (Macaca mulatta, UniProt Q28522); test: Biacore kinetics of SABAs on immobilized serum albumin: RhSA; assay type: binding, rhesus; details: for Kd: target RhSA
Chain of RhSA (Q28522 17-600): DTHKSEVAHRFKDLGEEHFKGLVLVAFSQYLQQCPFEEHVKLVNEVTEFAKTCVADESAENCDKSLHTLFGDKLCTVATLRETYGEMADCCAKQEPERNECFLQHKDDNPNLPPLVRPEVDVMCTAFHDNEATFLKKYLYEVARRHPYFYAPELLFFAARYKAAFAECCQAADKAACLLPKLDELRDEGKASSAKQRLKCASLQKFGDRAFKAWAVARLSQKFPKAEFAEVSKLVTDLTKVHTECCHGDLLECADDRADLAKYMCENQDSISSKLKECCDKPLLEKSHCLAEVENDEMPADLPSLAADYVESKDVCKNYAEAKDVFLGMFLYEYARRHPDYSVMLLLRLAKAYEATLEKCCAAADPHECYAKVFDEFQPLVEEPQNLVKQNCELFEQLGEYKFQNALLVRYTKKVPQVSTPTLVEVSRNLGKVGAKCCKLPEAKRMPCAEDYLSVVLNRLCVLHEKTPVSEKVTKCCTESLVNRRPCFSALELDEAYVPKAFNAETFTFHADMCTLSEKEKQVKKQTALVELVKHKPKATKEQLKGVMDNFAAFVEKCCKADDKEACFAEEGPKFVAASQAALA
Description: as §1

MuSA = MuSA (Mus musculus, UniProt P07724); test: Biacore kinetics of SABAs on immobilized serum albumin: MuSA; assay type: binding
Chain of MuSA (P07724 25-608): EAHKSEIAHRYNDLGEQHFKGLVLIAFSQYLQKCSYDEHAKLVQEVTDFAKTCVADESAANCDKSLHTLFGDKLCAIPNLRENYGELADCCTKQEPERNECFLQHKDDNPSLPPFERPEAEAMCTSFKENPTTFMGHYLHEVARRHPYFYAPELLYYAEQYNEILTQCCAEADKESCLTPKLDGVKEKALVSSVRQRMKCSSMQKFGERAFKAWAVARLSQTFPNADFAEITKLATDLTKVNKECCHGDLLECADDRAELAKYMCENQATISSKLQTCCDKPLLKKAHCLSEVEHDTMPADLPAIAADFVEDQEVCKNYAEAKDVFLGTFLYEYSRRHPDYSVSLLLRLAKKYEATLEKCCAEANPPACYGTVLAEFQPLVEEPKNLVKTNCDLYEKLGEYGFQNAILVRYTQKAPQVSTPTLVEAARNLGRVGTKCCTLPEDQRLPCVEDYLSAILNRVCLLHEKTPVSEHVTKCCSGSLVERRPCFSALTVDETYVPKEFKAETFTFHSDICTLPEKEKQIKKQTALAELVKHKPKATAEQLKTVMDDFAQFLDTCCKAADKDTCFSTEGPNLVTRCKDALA

[2] = Analytical size exclusion chromatography (SEC) of SABAs; assay type: physicochemical; details: midscaled material
Description: Size exclusion chromatography (SEC) was performed on the SABAs resulting from the HTPP. SEC of HTPP derived material was performed using a Superdex 200 5/150 or Superdex 75 5/150 column (GE Healthcare) on an Agilent 1100 or 1200 HPLC system with UV detection at A214 nm and A280 nm and with fluorescence detection (excitation=280 nm, emission=350 nm). A buffer of 100 mM sodium sulfate, 100 mM sodium phosphate, 150 mM sodium chloride, pH 6.8 at appropriate flow rate of the SEC column employed. Gel filtration standards (Bio-Rad Laboratories, Hercules, Calif.) were used for molecular weight calibration.
Midscale expression and purification yielded highly pure and active Adnectins™ that were expressed in a soluble form and purified from the soluble fraction of the bacterial cytosol.
Standard size exclusion chromatography (SEC) was performed on the candidate SABAs resulting from the midscale process. SEC of midscaled material was performed using a Superdex 200 10/30 or on a Superdex 75 10/30 column (GE Healthcare) on an Agilent 1100 or 1200 HPLC system with UV detection at A214 nm and A280 nm and with fluorescence detection (excitation=280 nm, emission=350 nm). A buffer of 100 mM sodium sulfate, 100 mM sodium phosphate, 150 mM sodium chloride, pH 6.8 at appropriate flow rate of the SEC column employed. Gel filtration standards (Bio-Rad Laboratories, Hercules, Calif.) were used for molecular weight calibration.

[3] = Pharmacokinetics of His-tagged FGF21 and SABA-FGF21 fusions in monkeys; assay type: in vivo, cynomolgus monkeys; details: monkeys
Description: Various in vivo studies were conducted in mice and monkeys to characterize the pharmacokinetics of His-tagged FGF21 and SABA1-FGF21v1. An ELISA-based ligand binding assay was used to measure the His-tagged FGF21 and SABA1-FGF21v1 in all mouse and monkey plasma samples.
Following subcutaneous administration, His-tagged FGF21 was well absorbed.
Following subcutaneous administration, SABA1-FGF21v1 was well absorbed.

[4] = intravenous, His-tagged FGF21 0.5 mg/kg, SABA1-FGF21v1 0.08 mg/kg

B1: SABA1-APPv7: SEQ ID NO: 364; SABA1.7-(ED)5G-Cys conjugated to Maleimide-PEG20-PP-CONH2 (conjugate)
chain: MGVSDVPRDLEVVAATPTSLLISWHSYYEQNSYYRITYGETGGNSPVQEFTVPYSQTTATISGLKPGVDYTITVYAVYGSKYYYPISINYRTEIEDEDEDEDEDGC
modifications: Maleimide-PEG20-PP-CONH2 conjugated via Cys
In the case of B1, the “Koff (1/s)” value (Human serum albumin) is reported as 1.42 10^−4 1/s and the “Kon (1/Ms)” value (Human serum albumin) is reported as 7.88 10^3 1/Ms.

B2: SABA1-PYYv7: SEQ ID NO: 344; SABA1.7-(ED)5G-Cys conjugated to Maleimide-PEG20-PYY-CONH2 (conjugate)
chain: B1 chain
modifications: Maleimide-PEG20-PYY-CONH2 conjugated via Cys
In the case of B2, the “Koff (1/s)” value (Human serum albumin) is reported as 2.08 10^−4 1/s and the “Kon (1/Ms)” value (Human serum albumin) is reported as 9.29 10^3 1/Ms.

B3: SABA2.1: His-tagged SABA2 sequence (protein)
chain: MGVSDVPRDLEVVAATPTSLLISWPKYDKTGHYYRITYGETGGNSPVQEFTVPTRQTTATISGLKPGVDYTITVYAVSKDDYYPHEHRPISINYRTEIDKPSQHHHHHH
modifications: His6 tag
In the case of B3, the “PK (T½) Mice” value [1] is reported as 2.8 h, the “half-life in mice plasma” value [1] is reported as 0.24 h and the “increase in half life when co-injected with HSA” value [1] is reported as ~12 fold. The “Comments: binding in dependence of pH” value (HSA) was “Loss of binding at pH ≦6.5”, the “cross reaction with RhSA” value (RhSA) was “cross reacted” and the “cross reaction with MuSA” value (MuSA) was “did not cross react”. For the same molecule, the “SEC Dimer (%)” value [2] was 9% and the “SEC Monomer (%)” value [2] was 91%.

B4: SABA4.1: HSA binding clone of SABA4 (protein)
chain: MGVSDVPRDLEMVAATPTSLLISWEDDSYYSRYYRITYGETGGNSPVQEFTVPSDLYTATISGLKPGVDYTITVYAVTYDVTDLIMHEPISINYRTEIDKPSQHHHHHH
modifications: His6 tag
With B4 the “PK (T½) Mice” value [1] was 4.6 h, the “half-life in mice plasma” value [1] was 0.66 h and the “increase in half life when co-injected with HSA” value [1] was ~7 fold. The “Comments: decrease in KD observed at pH <6.0” value (HSA; pH <6.0) was >2-fold decrease in KD observed at, the “Comments: binding affinity for RhSA” value (RhSA) was “Poor binding affinity for RhSA” and the “cross reaction with RhSA” value (RhSA) was “cross reacted”. The “cross reaction with MuSA” value (MuSA) was “did not cross react”.

B5: SABA3: SABA core sequence from PROfusion; in Table 5 stands for SABA3.1 (protein)
chain: EVVAATPTSLLISWSNDGPGLSYYRITYGETGGNSPVQEFTVPSSQTTATISGLKPGVDYTITVYAVSYYTKKAYSAGPISINYRT
For B5, the Kd (HSA) was 863 nM, the “Resistant to pH 7.4→5.5?” value (HSA) was “pH resistant binding to HSA down to pH 6.0” and the Kd (RhSA) was 431 nM.

B6: FGF21-SABA1v1: fusion in which the SABA moiety is at the C-terminus of FGF21, SEQ ID NO: 171; 300 aa; DNA SEQ ID NO: 180 (protein)
chain: MPIPDSSPLLQFGGQVRQRYLYTDDAQQTEAHLEIREDGTVGGAADQSPESLLQLKALKPGVIQILGVKTSRFLCQRPDGALYGSLHFDPEACSFRELLLEDGYNVYQSEAHGLPLHLPGNKSPHRDPAPRGPARFLPLPGLPPALPEPPGILAPQPPDVGSSDPLSMVGPSQGRSPSYASGGSGSGSGSGSGSGSGVSDVPRDLEVVAATPTSLLISWHSYYEQNSYYRITYGETGGNSPVQEFTVPYSQTTATISGLKPGVDYTITVYAVYGSKYYYPISINYRTEIDKPSQHHHHHH
With B6 the “increase of t1/2 compared to His-tagged FGF21” value [3] was ~27 fold, the “CL (total body plasma clearance, CLTp)” value [3, 4] was 1.2 mL/h/kg and the “T½ (terminal half-life)” value [3, 4] was 50.3 h. The “Vdss (steady-state volume of distribution, Vss)” value [3, 4] was 0.06 L/kg.

B7: SABA4: SABA core with a scaffold mutation; same BC, DE, FG loops as SABA5; in Table 5 stands for SABA4.1 (protein)
chain: EMVAATPTSLLISWEDDSYYSRYYRITYGETGGNSPVQEFTVPSDLYTATISGLKPGVDYTITVYAVTYDVTDLIMHEPISINYRT
For B7, the “PK (T½) Mice” value [1] was 4.6 h, the Kd (HSA) was 412 nM and the “Resistant to pH 7.4→5.5?” value (HSA) was “pH sensitive”. The Kd (RhSA) was > 1000 nM.

B8: SABA2: SABA core sequence from PROfusion; in Table 5 stands for SABA2.1 (protein)
chain: EVVAATPTSLLISWPKYDKTGHYYRITYGETGGNSPVQEFTVPTRQTTATISGLKPGVDYTITVYAVSKDDYYPHEHRPISINYRT
In the case of B8, the Kd (HSA) is reported as 33.8 nM, the “Resistant to pH 7.4→5.5?” value (HSA) is reported as “pH sensitive” and the Kd (RhSA) is reported as 63.6 nM.

B9: SABA1: serum albumin binding 10Fn3 core sequence, SEQ ID NO: 4; in Table 5 stands for SABA1.1 (protein)
chain: EVVAATPTSLLISWHSYYEQNSYYRITYGETGGNSPVQEFTVPYSQTTATISGLKPGVDYTITVYAVYGSKYYYPISINYRT
B9 gave a Kd (HSA) of 47.2 nM and a Kd (RhSA) of 778 nM.

Reference: patent US9540424B2, “Serum albumin binding molecules” (BRISTOL-MYERS SQUIBB COMPANY, priority 2010, dated 2017)
